Reference: PMC4587294 (Nanomedicine, 2015)
Where “and” joins values, the source holds several entries; their conditions need not be identical. Identical values can stand only once.

Tests used:
AUC = target: the molecule itself; assay: AUC
STEM mass measurement = target: the molecule itself; assay: STEM mass measurement

B1: T2i88-8-pf self-assembling protein nanoparticle (SAPN) chain (designed binder)
chain: MGHHHHHHASWKWDGGLVPRGSWQTWNAKWDQWSNDWNAWRSDWQAWKDDWAYWTLTWKYGELYSKLAELERRLEELAKFVAAWTLKAAAVDLELAALRRRLEELARGGSGANANPNANPNANPNANP
stoichiometry N (AUC): ~180 chains per nanoparticle | stoichiometry N (STEM mass measurement): 195 peptide chains per nanoparticle and ~180 peptide chains per particle
